test system: Escherichia coli TOP10; test: shrunken log2 fold change of peptide-encoding DNA abundance (4.5 h post-induction vs induction); higher = less antimicrobial activity (less host growth inhibition); details: time post-induction: 4.5 h; library: site-saturation at positions 5, 18, 19, 20
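Note: peptides expressed intracellularly from a pBAD plasmid library in pooled LB shake-flask culture, induced with 0.3% L-arabinose, DNA abundance read by NGS, three biological replicates, DESeq2 with apeglm shrinkage.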

Sequence | shrunken log2 fold change
RRIRYRPPRLPRPRPRPDMMPRP | -0.417
RRIRGRPPRLPRPRPRPLSEPRP | 0.52
RRIRSRPPRLPRPRPRPRVKPRP | -0.224
RRIRIRPPRLPRPRPRPESRPRP | 0.0553
RRIRTRPPRLPRPRPRPRHPPRP | 0.225
RRIRMRPPRLPRPRPRPILTPRP | 0.168
RRIRVRPPRLPRPRPRPVDTPRP | -0.18
RRIRRRPPRLPRPRPRPADWPRP | 0.652
RRIRERPPRLPRPRPRPRWWPRP | 0.0167
RRIRLRPPRLPRPRPRPNGPPRP | -0.146
RRIRERPPRLPRPRPRPNLMPRP | -0.665
RRIRVRPPRLPRPRPRPYSYPRP | 0.128
RRIRRRPPRLPRPRPRPYISPRP | -0.485
RRIRWRPPRLPRPRPRPKLYPRP | 0.113
RRIRKRPPRLPRPRPRPTFTPRP | 0.186
RRIRCRPPRLPRPRPRPAVRPRP | 0.0848
RRIRQRPPRLPRPRPRPRHWPRP | 0.218
RRIRGRPPRLPRPRPRPWDPPRP | -0.11
RRIRTRPPRLPRPRPRPDPKPRP | 0.113
RRIRIRPPRLPRPRPRPTCPPRP | 0.00857
RRIRSRPPRLPRPRPRPNWFPRP | -0.0702
RRIRMRPPRLPRPRPRPDWEPRP | 0.382
RRIRKRPPRLPRPRPRPCPDPRP | -0.0203
RRIRSRPPRLPRPRPRPVYRPRP | -0.398
RRIRARPPRLPRPRPRPYQSPRP | -0.0285

Sequence | shrunken log2 fold change
RRIRARPPRLPRPRPRPQHFPRP | 3.55
RRIRDRPPRLPRPRPRPGQIPRP | 0.0221
RRIRGRPPRLPRPRPRPKFNPRP | 0.353
RRIRLRPPRLPRPRPRPMCIPRP | -0.125
RRIRMRPPRLPRPRPRPSQRPRP | 0.158
RRIRLRPPRLPRPRPRPNTTPRP | -0.463
RRIRGRPPRLPRPRPRPTQHPRP | 0.855
RRIRSRPPRLPRPRPRPWFTPRP | -0.253
RRIRARPPRLPRPRPRPMCMPRP | 0.272
RRIRYRPPRLPRPRPRPVCTPRP | -0.569
RRIRFRPPRLPRPRPRPCGEPRP | -0.0646
RRIRSRPPRLPRPRPRPTCCPRP | 0.164
RRIRDRPPRLPRPRPRPPSCPRP | 0.379
RRIRQRPPRLPRPRPRPSAYPRP | -0.247
RRIRCRPPRLPRPRPRPQQSPRP | -0.0144
RRIRERPPRLPRPRPRPYDDPRP | -0.341
RRIRCRPPRLPRPRPRPGWVPRP | 0.513
RRIRGRPPRLPRPRPRPEFMPRP | 0.887
RRIRNRPPRLPRPRPRPLGFPRP | 0.0608
RRIRRRPPRLPRPRPRPKWVPRP | 0.242
RRIRMRPPRLPRPRPRPIADPRP | -0.00229
RRIRKRPPRLPRPRPRPDHYPRP | -0.0322
RRIRKRPPRLPRPRPRPKFTPRP | 0.355
RRIRQRPPRLPRPRPRPWTLPRP | -0.158
RRIRPRPPRLPRPRPRPTLHPRP | 0.0853

Sequence | shrunken log2 fold change
RRIRGRPPRLPRPRPRPAEKPRP | 0.261
RRIRFRPPRLPRPRPRPRHNPRP | -0.275
RRIRARPPRLPRPRPRPPHSPRP | 0.902
RRIRSRPPRLPRPRPRPSWKPRP | -0.0985
RRIRGRPPRLPRPRPRPLTLPRP | 0.275
RRIRLRPPRLPRPRPRPIMWPRP | -0.0155
RRIRWRPPRLPRPRPRPYPYPRP | 0.0754
RRIRCRPPRLPRPRPRPDGDPRP | 0.0934
RRIRCRPPRLPRPRPRPFCIPRP | -0.571
RRIRIRPPRLPRPRPRPAEYPRP | 0.0308
RRIRIRPPRLPRPRPRPSVVPRP | 0.055
RRIRHRPPRLPRPRPRPWTIPRP | -0.0445
RRIRDRPPRLPRPRPRPQTVPRP | 0.0628
RRIRTRPPRLPRPRPRPMEAPRP | -0.0389
RRIRFRPPRLPRPRPRPLLIPRP | -0.385
RRIRDRPPRLPRPRPRPSMLPRP | -0.244
RRIRPRPPRLPRPRPRPPDWPRP | 0.577
RRIRTRPPRLPRPRPRPGDPPRP | 0.106
RRIRVRPPRLPRPRPRPNTFPRP | -0.521
RRIRARPPRLPRPRPRPWWGPRP | 3.62
RRIRYRPPRLPRPRPRPWHKPRP | -0.377
RRIRNRPPRLPRPRPRPLIYPRP | -0.114
RRIRMRPPRLPRPRPRPCNDPRP | -0.165
RRIRGRPPRLPRPRPRPDEFPRP | 0.561
RRIRMRPPRLPRPRPRPYPWPRP | -0.274

Sequence | shrunken log2 fold change
RRIRERPPRLPRPRPRPSNIPRP | -0.662
RRIRGRPPRLPRPRPRPDYCPRP | 0.0958
RRIRERPPRLPRPRPRPMQSPRP | 0.0874
RRIRMRPPRLPRPRPRPQEHPRP | 0.0123
RRIRSRPPRLPRPRPRPQRTPRP | -0.036
RRIRVRPPRLPRPRPRPWTQPRP | -0.219
RRIRPRPPRLPRPRPRPPDEPRP | 0.444
RRIRSRPPRLPRPRPRPFMDPRP | -0.519
RRIRHRPPRLPRPRPRPQQKPRP | -0.0153
RRIRTRPPRLPRPRPRPNKVPRP | -0.326
RRIRARPPRLPRPRPRPFSWPRP | -0.0923
RRIRIRPPRLPRPRPRPPDMPRP | -0.16
RRIRKRPPRLPRPRPRPDNLPRP | -0.0561
RRIRKRPPRLPRPRPRPPYTPRP | 0.0509
RRIRTRPPRLPRPRPRPDYEPRP | -0.023
RRIRERPPRLPRPRPRPYWLPRP | -0.294
RRIRVRPPRLPRPRPRPGHLPRP | -0.185
RRIRWRPPRLPRPRPRPQVSPRP | -0.0705
RRIRTRPPRLPRPRPRPGLFPRP | 0.458
RRIRDRPPRLPRPRPRPKMIPRP | -0.185
RRIRTRPPRLPRPRPRPFGTPRP | -0.107
RRIRYRPPRLPRPRPRPPIPPRP | 0.31
RRIRIRPPRLPRPRPRPVKCPRP | 0.101
RRIRSRPPRLPRPRPRPIQEPRP | 0.000527
RRIRMRPPRLPRPRPRPRMVPRP | 0.125

Sequence | shrunken log2 fold change
RRIRYRPPRLPRPRPRPWWWPRP | 0.0798
RRIRIRPPRLPRPRPRPPPNPRP | 0.776
RRIRHRPPRLPRPRPRPEDTPRP | 0.0437
RRIRWRPPRLPRPRPRPGAGPRP | 0.796
RRIRCRPPRLPRPRPRPGLFPRP | 0.154
RRIRVRPPRLPRPRPRPPDKPRP | 0.265
RRIRMRPPRLPRPRPRPKLFPRP | 0.244
RRIRIRPPRLPRPRPRPRADPRP | 0.0888
RRIRWRPPRLPRPRPRPTVHPRP | -0.189
RRIRMRPPRLPRPRPRPRDQPRP | 0.776
RRIRFRPPRLPRPRPRPFTEPRP | -0.869
RRIRTRPPRLPRPRPRPRQDPRP | -0.144
RRIRFRPPRLPRPRPRPARWPRP | 0.577
RRIRKRPPRLPRPRPRPMPGPRP | 0.0564
RRIRLRPPRLPRPRPRPAWWPRP | 0.173
RRIRFRPPRLPRPRPRPICVPRP | -0.161
RRIRWRPPRLPRPRPRPNTYPRP | 0.0764
RRIRVRPPRLPRPRPRPAPRPRP | 0.634
RRIRDRPPRLPRPRPRPSVVPRP | -0.0127
RRIRDRPPRLPRPRPRPYYCPRP | 0.0391
RRIRVRPPRLPRPRPRPECWPRP | 0.573
RRIRLRPPRLPRPRPRPHHQPRP | -0.162
RRIRQRPPRLPRPRPRPFYSPRP | -0.174
RRIRCRPPRLPRPRPRPSNQPRP | -0.414
RRIRNRPPRLPRPRPRPEEDPRP | 0.659

Sequence | shrunken log2 fold change
RRIRPRPPRLPRPRPRPDCWPRP | 0.543
RRIRGRPPRLPRPRPRPDVPPRP | 0.0136
RRIRVRPPRLPRPRPRPHAYPRP | -0.473
RRIRPRPPRLPRPRPRPRSHPRP | 0.16
RRIRTRPPRLPRPRPRPAVSPRP | 0.00645
RRIRMRPPRLPRPRPRPEYQPRP | 0.0424
RRIRNRPPRLPRPRPRPWLCPRP | 0.00252
RRIRQRPPRLPRPRPRPWWGPRP | 0.0786
RRIRTRPPRLPRPRPRPPRPPRP | 0.713
RRIRGRPPRLPRPRPRPDFNPRP | 0.325
RRIRMRPPRLPRPRPRPGWIPRP | -0.0121
RRIRMRPPRLPRPRPRPQRWPRP | 0.637
RRIRNRPPRLPRPRPRPVNYPRP | -0.179
RRIRARPPRLPRPRPRPIQYPRP | -0.463
RRIRCRPPRLPRPRPRPIDMPRP | -0.175
RRIRVRPPRLPRPRPRPNGVPRP | -0.154
RRIRKRPPRLPRPRPRPVMLPRP | 0.109
RRIRFRPPRLPRPRPRPLEAPRP | 0.0974
RRIRGRPPRLPRPRPRPFCWPRP | 0.551
RRIRPRPPRLPRPRPRPDNEPRP | -0.0784
RRIRFRPPRLPRPRPRPDHYPRP | -0.184
RRIRYRPPRLPRPRPRPGCFPRP | -0.349
RRIRIRPPRLPRPRPRPIDQPRP | -0.341
RRIRHRPPRLPRPRPRPFYQPRP | -0.389
RRIRDRPPRLPRPRPRPLMAPRP | 1.09
